Square brackets hold non-standard residues; d marks the D form. Ends that are not written are not given here. Bpa = N[C@@H](Cc1ccc(C(=O)c2ccccc2)cc1)C(=O)O; Phe(4-CN) = N#Cc1ccc(C[C@H](N)C(=O)O)cc1
Legend:
[1] = molecular target: endoproteinase Glu-C (Staphylococcus aureus, UniProt P0C1U8)
Protocol: Peptides were first dissolved to 100 μg/μl in DMF and further diluted to 100 μg/ml in either a 10% acetonitrile/water mixture for labelling or a 50 mM ammonium bicarbonate buffer (pH 7.8) for bulk digestion experiments. Prior to labelling the chips with the peptides, they were cleaved into pieces of a few mm^2 and cleaned by sonication in acetone, rinsed with isopropyl alcohol and water and dried with under a stream of nitrogen. Next, remaining organic contaminants were removed in an 02 plasma, which also renders the surface hydrophilic (120 s, PVA-TEPLA GIGAbatch 310 M, 6000 sccm O2, 600 W, 750 mTorr). Immediately afterwards, the chips were immersed in separate wells of a polypropylene 96-well plate, using 100 μl of a 100 μg/ml peptide solution in 10% acetonitrile in water. After overnight incubation, the chips were rinsed excessively with deionized water. […]
After incubation for a specific time at 37° C., 750 μl of a solution with 100 μg/ml substrate and 3.3 μg/ml trypsin or endoproteinase Glu-C in 50-100 mM ammonium bicarbonate was injected in a C-18 reversed phase high-performance liquid chromatography column (Macherey-Nagel) and eluted by a water/acetonitrile gradient (Akta Purifier, GE). The molecular weight of separated fractions was determined using matrix-assisted laser desorption/ionisation time-of-flight mass spectrometry (Bruker MALDI-TOF).

[2] = molecular target: T1, trypsin (Sus scrofa, UniProt P00761); experiment: Bulk (in-solution) trypsin digestion of peptide substrate, RP-HPLC separation and MALDI-TOF mass spectrometry, SERS of separated fractions; format: biochemical; settings: for extent of substrate digestion by trypsin (RP-HPLC/MALDI-TOF): peptide 100 μg/ml, trypsin 3.3 μg/ml (1/30 w/w), 50 mM ammonium-bicarbonate pH 7.8, 37° C.; for change of 1003 cm^-1 phenylalanine SERS peak in cleaved fraction after trypsin cleavage: cleaved vs uncleaved fractions labelled on gold nanodome chips
T1 construct: purchased Promega V5111
Protocol: As a first step, the activity of the protease on the substrate in solution was monitored. RP-HPLC was used to separate the substrate from the digestion products, which are subsequently labelled on a nanodome platform. From the difference spectrum, the characteristic peaks of the cleaved-off and remaining fractions are derived. FIG. 4(a2-a4) depicts the results of this experiment for trypsin and its CALNNYGGGGVRGNF (100 μg/ml) (SEQ ID NO:3) substrate. The peptide was incubated with trypsin (3.3 μg/ml) at a 1/30 (w/w) ratio in a 50 mM ammonium-bicarbonate (pH 7.8) buffer in water, and separated with RP-HPLC (FIG. 4(a2)) after 0, 30 and 90 minutes of incubation. The RP-HPLC-separated peptides and their fragments were identified using MALDI-TOF mass spectrometry. […] The dimer formation is a consequence of the oxidation of the cysteine thiol groups upon which a disulphide bond is formed between two peptides. […] Subsequently, nanodome chips were labeled with cleaved and uncleaved fractions. […] Furthermore, the peaks at 618 cm^−1, 1030 cm^−1 and 1207 cm^−1 show a partial decrease, although their signal to noise ratio is low. All these peaks correspond to those attributed to phenylalanine (Table 1). From this experiment, it is concluded that the ratio between the 1003 cm^−1 peak and the 829-860 cm^−1 peaks (I1003/I829-860) is a correct metric for IF/IY, the cleavage of the substrate by trypsin.
The activity of trypsin on the peptides with unnatural aromatic amino acids was verified using HPLC/mass spectrometry, showing complete digestion of 100 μg/ml peptide after 1 hour incubation with a 4 μg/ml Trypsin concentration. Subsequently, cleaved and uncleaved fractions were labelled on a nanodome SERS substrate.

[3] = molecular target: T1, trypsin; experiment: Trypsin hydrolysis of unbound peptide observed through SERS spectra of a non-separated mixture; format: biochemical; settings: peptide 100 μg/ml, trypsin 2 μg/ml, 2 hours of incubation, no RP-HPLC separation
Text: Apart from a thiol-gold interaction, N-terminal primary amines can also lead to a charge-based adsorption on metal surfaces (ref 39). This effect may be additive in the case of cysteine, but could lead to the adsorption of unwanted amino acids on the gold surface. In a second set of in-solution experiments, a similar trypsin was run—CALNNYGGGGVRGNF (SEQ ID NO:3) assay without separating the fractions by RP-HPLC (FIG. 5). One nanodome chip was labelled with a reference solution of the peptide (100 μg/ml), another with a solution of peptide (100 μg/ml) and trypsin (2 μg/ml) after 2 hours of incubation. […] Furthermore, the SERS and difference SERS-spectra shown in FIG. 5 confirm the findings of the RP-HPLC experiment in FIG. 4(a).
(§1) Spectra were acquired on a WITec Alpha 300 R+ confocal Raman microscope equipped with spectrometer using a 600 lpmm grating, a −70° C. cooled CCD camera (Andor iDus 401 BR-DD) and a 785 nm diode laser (Toptica, XTRA II). Raman spectra of the peptide powders were acquired using a Zeiss 100×/0.9 EC Epiplan NEOFLUAR; ∞/0 objective and a laser power of 100 mW, measured before the objective. SERS spectra were acquired through a Zeiss 63×/1.0 W-Plan Apochromat ∞/0 objective with 2 mW laser power. […]

[4] = molecular target: T1, trypsin; experiment: SERS-monitored trypsin hydrolysis of gold-nanodome bound peptides (with and without ovomucoid inhibitor); format: biochemical; settings: for decrease of SERS intensity ratio I1003/I829-860: gold-nanodome bound peptide
Protocol: In a third experimental setup, three CALNNYGGGGVRGNF (SEQ ID NO:3) labelled nanodome chips were incubated in a buffer without trypsin, with trypsin and with trypsin plus an ovomucoid inhibitor for 45 minutes (FIG. 6). […] On the chip with trypsin only, the surface bound peptides are cleaved, resulting in a decrease of 11003/1829-860 by 40-48%. […] Two possible origins are considered for the remaining signal at 1003 cm^−1. […] More likely, the remaining signal originates from peptides that are not accessible to the protease due to steric hindrance. This can be a result of a too dense monolayer of peptides (refs 11, 23) or inaccessible parts of the nanodome geometry. Especially in the latter case, the inaccessible peptides are probably located in the nanodome gaps and will contribute disproportionally strong to the SERS signal.
Spectra were acquired on a WITec Alpha 300 R+ confocal Raman microscope equipped with spectrometer using a 600 lpmm grating, a −70° C. cooled CCD camera (Andor iDus 401 BR-DD) and a 785 nm diode laser (Toptica, XTRA II). Raman spectra of the peptide powders were acquired using a Zeiss 100×/0.9 EC Epiplan NEOFLUAR; ∞/0 objective and a laser power of 100 mW, measured before the objective. SERS spectra were acquired through a Zeiss 63×/1.0 W-Plan Apochromat ∞/0 objective with 2 mW laser power. For real-time monitoring of enzymatic activity, the chip was placed in a metal petri dish filled with 1 ml 50 mM ammonium bicarbonate buffer (pH 7.8) inside a stage-top incubator at 37° C. (Okolab). Because of signal degradation upon laser illumination, each trace is the median spectrum of a spatially distributed map of 10×10 pixels in a 20×20 μm area with an integration time of 1 s on each point. In the real-time assay, every next trace was mapped on a different location on the SERS platform. […]
(§2) Starting from the 10×10 individual spectra, WITec Project Four® was used for removing cosmic rays. […] 11003 and 1829-860 were calculated by integrating the peaks at their respective positions and subtracting the background with a linear fit for the individual spectra. […]

[5] = molecular target: T1, trypsin; experiment: Real-time SERS observation of trypsin activity on gold-nanodome bound peptide; format: biochemical
Protocol: Finally, CALNNYGGGGVRGNF (SEQ ID NO:3) labelled chips were incubated with trypsin under the Raman microscope for a real-time acquisition of SERS spectra. […] A new spectrum was acquired every 2-3 minutes with an integration time of 100 seconds. A relative decrease of I1003 versus the peaks at 829, 860, 948, 1248, 1330, 1603 and 1677 cm^−1 is visible within the first minutes after adding 0.2 μg/ml trypsin (8.6 nM) to a total volume of 1 ml (8.6 pmol), in agreement with Table 1 and the earlier experiments described in this work. SERS spectra after 2 minutes and 30 minutes of trypsin incubation show a further reduction of I1003 and I1206 with increasing incubation time (FIG. 7 (b)). […]
as §1, with “objective.” for “objective. SERS spectra were acquired through a Zeiss 63×/1.0 W-Plan Apochromat ∞/0 objective with 2 mW laser power.”
as §2

T1 sequence (P00761 9-231): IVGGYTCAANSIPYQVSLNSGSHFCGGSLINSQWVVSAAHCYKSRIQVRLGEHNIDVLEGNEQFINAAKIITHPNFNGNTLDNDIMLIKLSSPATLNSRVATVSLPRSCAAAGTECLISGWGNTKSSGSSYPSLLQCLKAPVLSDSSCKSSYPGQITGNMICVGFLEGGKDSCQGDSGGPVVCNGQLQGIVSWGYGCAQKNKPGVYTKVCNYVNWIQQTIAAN
Sequence of endoproteinase Glu-C (P0C1U8 69-336): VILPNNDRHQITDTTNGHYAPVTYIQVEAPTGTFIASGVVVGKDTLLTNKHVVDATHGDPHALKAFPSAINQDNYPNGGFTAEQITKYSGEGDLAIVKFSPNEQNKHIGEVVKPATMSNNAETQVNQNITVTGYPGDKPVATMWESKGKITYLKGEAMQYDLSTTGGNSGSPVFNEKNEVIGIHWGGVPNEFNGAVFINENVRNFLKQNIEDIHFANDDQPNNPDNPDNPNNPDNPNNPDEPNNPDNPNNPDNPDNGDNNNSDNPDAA

For CALNNYGGGGNNESWH, the “conversion of substrate to products by endoproteinase Glu-C (RP-HPLC/mass spectrometry)” value ([1]; 4 hours of incubation, peptide 100 μg/ml, endoproteinase Glu-C 3.3 μg/ml) was “almost full conversion” and the “change of 754 cm^-1 and 1356 cm^-1 (tryptophan) SERS peaks upon endoproteinase Glu-C cleavage” value ([1]; cleaved peptide vs uncleaved dimer bound to nanodome chips) was “disappearance”.

In the case of “CALNNYGGGGVRGNF (trypsin substrate) [trypsin substrate peptide with Tyr and Phe SERS reporters]”, the “extent of substrate digestion by trypsin (RP-HPLC/MALDI-TOF)” value ([2]; 30 minutes incubation) is reported as “almost fully digested”, the “extent of substrate digestion by trypsin (RP-HPLC/MALDI-TOF)” value ([2]; 90 minutes incubation) is reported as “fully cleaved” and the “change of 1003 cm^-1 phenylalanine SERS peak in cleaved fraction after trypsin cleavage” value [2] is reported as “full disappearance”. The “extent of digestion by trypsin, from lack of 1003 cm^-1 phenylalanine SERS peak” value [3] was “fully digested”, the “decrease of SERS intensity ratio I1003/I829-860” value ([4]; 45 minutes incubation) was 40-48% and the “decrease of SERS intensity ratio I1003/I829-860” value ([4]; trypsin) was at most 53%. The “time course of digestion of gold-bound peptide in real-time monitoring” value ([5]; 8.6 nM trypsin concentration) was “immediate digestion within the first two minutes” and the “cleavage of accessible surface-bound substrate in real time (I1003/I829-860 versus time)” value ([5]; trypsin concentrations ranging from 1 to 0.2 μg/ml, 37° C., spectrum every 2-3 minutes) was “most of the accessible substrate was cleaved within the time-span of the first measurement”.

In the case of “CALNN(cnF)GGGGVRGNF (CALNN[Phe(4-CN)]GGGGVRGNF) [trypsin substrate analogue, tyrosine replaced by 4-cyano-phenylalanine]”, the “change of 1003 cm^-1 phenylalanine SERS peak in cleaved fraction after trypsin cleavage” value [2] is reported as “complete disappearance”.

With “CALNN(bzF)GGGGVRGNF (CALNN[Bpa]GGGGVRGNF) [trypsin substrate analogue, tyrosine replaced by benzoyl-phenylalanine]” the “change of 1003 cm^-1 phenylalanine SERS peak in cleaved fraction after trypsin cleavage” value [2] was “decrease”.

B1: ovomucoid inhibitor: Ovomucoid (Type II-0) Trypsin inhibitor from chicken egg white (Sigma, T9253) (protein, UniProt P01005 25-210, looked up)
Ovomucoid: AEVDCSRFPNATDKEGKDVLVCNKDLRPICGTDGVTYTNDCLLCAYSIEFGTNISKEHDGECKETVPMNCSSYANTTSEDGKVMVLCNRAFNPVCGTDGVTYDNECLLCAHKVEQGASVDKRHDGGCRKELAAVSVDCSEYPKPDCTAEDRPLCGSDNKTYGNKCNFCNAVVESNGTLTLSHFGKC
In the case of B1, the “inhibition of tryptic cleavage of surface-bound peptide (SERS spectrum vs reference chip)” value ([4]; trypsin plus ovomucoid inhibitor, 45 minutes, inhibitor 100 μg/ml, substrate CALNNYGGGGVRGNF on nanodome chip) is reported as “full blockade of tryptic cleavage”.

From patent US20210079444A1, “LABEL FREE DETECTION OF PROTEASE ACTIVITY” (VIB VZW, priority 2017, published 2021)
